From US20120225060A1 (APEXIGEN, published 2012)
Positions count from the first letter of the chain named.

B1: clone 36 rabbit anti-IL-6R antibody (antibody, V domains shown)
VH: QSVEESGGRLVTPGTPLTLTCTVSGFSLSSYYMSWVRQAPGKGLEWIGITTTSTNTFYASWAKGRFTISKTSATVDLKITSPTIEDTATYFCARYGGNSAYYAFSLWGQGTLVTVSS
VL: QVLTQTASSVSAAVGGTVTISCQSSQSVYNNNYLAWFQQKPGQPPKLLIYGASNLASGVPSRFKGSGSGTQFTLTISDLECDNAATYYCQGYYNGVIFVFGGGTEVVVK
B2: humanized clone #36 anti-IL-6R antibody (antibody, human IgG1, kappa, V domains shown)
VH: EVQLVESGGGLVQPGGSLRLSCAVSGFSLSSYYMSWVRQAPGKGLEWIGITTTSTNTFYASWAKGRFTISKDSSKNTVYLQMNSPRAEDTAVYFCARYGGNSAYYAFSLWGQGTLVTVSS
VL: DIQMTQSPSSLSASVGDRVTISCQSSQSVYNNNYLAWFQQKPGKPPKLLIYGASNLASGVPSRFSGSGSGTQFTLTISSLQPEDVATYYCQGYYNGVIFVFGGGTKVEIKR
notes: Humanized VH cloned into human IgG1 CH vector, humanized VK into human CK vector; also called Humanized 36; humanized 36
B3: humanized clone #51 anti-IL-6R antibody (antibody, human IgG1, kappa, V domains shown)
VH: EVQLVESGGGLVQPGGSLRLSCAASGFDISSYSLQWVRQSPGKGLEYIGFIRPDGSAHYATWAKGRFTISKDSSKNTVYLQMNSLRAEDTAVYFCARDDISSDYFPNLWGPGTLVTVSS
VL: DIQMTQSPSTLSASVGDRVTISCQASESVYNKNNLAWYQQKPGKPPKLLIYDASDLASGVPSRFSGSGSGTQFTLTISSLQPDDFATYYCAGGGSGNVYDFGGGTKVEIKR
notes: Humanized VH cloned into human IgG1 CH vector, humanized VK into human CK vector; also called Humanized 51; humanized 51
B4: clone 5 rabbit anti-IL-6R antibody (antibody, V domains shown)
VH: QSLEESGGRLVTPGTPLTLTCTVSGIDLSRYWMSWVRQAPGKGLEWIGMISGGNTWYASWAKGRFTISKTSTTVDLKITSPTTEDTATYFCARGIDTGIATTFNLWGPGTLVTVSS
VL: AQVLTQTPSSVSAAVGGTVTISCQSSQSVYNNNRLSWFQQKPGQPPKLLIYYASTLASGVPSRFKGSGSGTQFTLTISDLECDDAATYYCQGYYSGVINVFGGGTEVVVK
B5: clone 51 rabbit anti-IL-6R antibody (antibody, V domains shown)
VH: QSVEESGGRLVTPGTPLTLTCTASGFDISSYSLQWVRQSPGKGLEYIGFIRPDGSAHYATWAKGRFTISKTSSTTVDLKMTSLTTEDTATYFCARDDISSDYFPNLWGPGTLVTVSS
VL: QVLTQTPSPVSAAVGGTVTISCQASESVYNKNNLAWYQQKPGQPPKLLIYDASDLASGVSSRFKGSGSGTQFTLTISDLECADAATYYCAGGGSGNVYDFGGGTEVVVK
B6: clone 21 rabbit anti-IL-6R antibody (antibody, V domains shown)
VH: B1 VH with F26I, S27D, S30N, T50S, T51S, S53T, T54S, I84T
VL: AVVLTQTPSPVSAAVGGTVTINCQSSQSVYNNNYLAWYQQKPGQPPKLLIYGASNLASGVPSRFKGSGSGTQFTLTISEVQCDDAATYYCQGYYNGVIFVFGGGTEVVVK
B7: clone 42 rabbit anti-IL-6R antibody (antibody, V domains shown)
VH: QSVEESGGRLVTPGTPLTLTCTVSGFSLSNYWMSWVRQAPGKGLEWIAFIGGGNTFYASWAKGRFTISKTSSTTVDLSMPSPTTEDTATYFCARGYGAPGYDLWGQGTLVTVSL
VL: AIVMTQTPSSKSVPVGDTVTINCQASESVYTNNRLSWYQQKPGQPPKLLIYYASTLASGVPSRFKGSGSGTQFTLTISDVVCDNAATYYCVGYKSSDGDGTAFGGGTEVVVK
B8: clone 40 rabbit anti-IL-6R antibody (antibody, V domains shown)
VH: QSLEESGGRLVSPGGSLTLTCTVSGVDLNTYAMGWVRQAPGKGLECIGVILGSGTTYYANWAKGRFTISKTSSTTVDLKMTNLTAADTATYFCAGDRYGSLEEVITPYFDLWGPGILVTVSS
VL: DVVMTQTPASVEAAVGGTVTIKCQASQNIYNNLAWYQQKPAQPPKLLIYSASTLESGVPSRFKGSGSGTGYTLTISDLECADAATYYCQSAYYTSYIDHNVFGGGTEVVVE
B9: clone 23 rabbit anti-IL-6R antibody (antibody, V domains shown)
VH: B4 VH
VL: B4 VL with A13T, S28N, A53T, A57P
B10: clone 37 rabbit anti-IL-6R antibody (antibody, V domains shown)
VH: B4 VH with K69G, T79I, E84A
VL: B4 VL with N31S, A53T

Molecular target: T1, recombinant human IL-6R-extracellular domain (ECD) (human, UniProt P08887 20-365)
T1 construct: extracellular domain; also called IL-6R-ECD
T1 sequence (looked up): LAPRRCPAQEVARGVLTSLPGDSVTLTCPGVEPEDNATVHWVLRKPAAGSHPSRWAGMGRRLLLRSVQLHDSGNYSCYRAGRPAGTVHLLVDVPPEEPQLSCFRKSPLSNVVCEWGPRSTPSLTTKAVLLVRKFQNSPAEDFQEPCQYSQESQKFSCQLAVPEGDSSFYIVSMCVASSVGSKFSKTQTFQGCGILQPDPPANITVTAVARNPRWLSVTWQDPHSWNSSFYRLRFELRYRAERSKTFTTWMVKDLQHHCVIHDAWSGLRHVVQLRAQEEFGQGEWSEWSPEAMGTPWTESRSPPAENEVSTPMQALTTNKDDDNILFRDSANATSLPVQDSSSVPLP
Assay: SPR

Binder | Kd | koff | kon
B1 | 635 pM | 0.000342 s⁻¹ | 538000 M⁻¹ s⁻¹
B2 | 526 pM | 0.00031 s⁻¹ | 589000 M⁻¹ s⁻¹
B3 | 1290 pM | 0.0004 s⁻¹ | 311000 M⁻¹ s⁻¹
B4 | 523 pM | 0.000279 s⁻¹ | 533000 M⁻¹ s⁻¹
B5 | 1170 pM | 0.000463 s⁻¹ | 393000 M⁻¹ s⁻¹

Molecular target: T2, IL-6R on human myeloma U266B1 cells (human, UniProt P08887 20-468)
T2 sequence (looked up): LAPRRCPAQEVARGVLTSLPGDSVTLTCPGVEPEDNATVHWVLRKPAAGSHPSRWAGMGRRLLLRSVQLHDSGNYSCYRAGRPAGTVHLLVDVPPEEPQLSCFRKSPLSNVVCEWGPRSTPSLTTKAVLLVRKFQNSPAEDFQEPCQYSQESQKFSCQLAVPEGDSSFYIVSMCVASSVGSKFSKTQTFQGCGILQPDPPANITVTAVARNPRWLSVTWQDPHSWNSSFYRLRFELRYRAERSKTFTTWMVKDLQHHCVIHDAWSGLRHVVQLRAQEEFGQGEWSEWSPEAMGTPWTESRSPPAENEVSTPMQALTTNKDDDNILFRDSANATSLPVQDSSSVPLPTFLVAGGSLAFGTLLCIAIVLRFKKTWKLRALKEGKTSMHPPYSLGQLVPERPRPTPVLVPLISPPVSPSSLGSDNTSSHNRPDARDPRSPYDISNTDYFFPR
Assay: cell-based or functional assay

Binder | inhibition of STAT3 phosphorylation, fold as compared to tocilizumab (hPM-1)
B1 | > 10 fold

Molecular target: T1, recombinant human IL-6R-extracellular …
Assay: direct ELISA on IL-6R

Binder | EC50
B6 | 0.04 µg/mL
B1 | 0.02 µg/mL
B7 | 0.04 µg/mL
B8 | 0.02 µg/mL
B4 | 0.04 µg/mL
B9 | 0.07 µg/mL
B10 | 0.05 µg/mL
B5 | 0.03 µg/mL

Molecular target: T1, recombinant human IL-6R-extracellular …
Assay: direct ELISA on IL-6R
Remark: another data set of the same source

Binder | EC50
B1 | 0.0595 µg/mL
B2 | 0.0216 µg/mL
B3 | 0.0169 µg/mL
B5 | ~0.03 µg/mL

Molecular target: T2, IL-6R on human myeloma U266B1 cells
Assay: cell-based or functional assay
Remark: another data set of the same source

Binder | TF-1 proliferation IC50
B6 | 0.11 µg/mL
B1 | 0.04 µg/mL
B7 | 0.03 µg/mL
B8 | 0.02 µg/mL
B4 | 0.03 µg/mL
B9 | 0.07 µg/mL
B10 | 0.09 µg/mL
B5 | 0.02 µg/mL

Molecular target: T2, IL-6R on human myeloma U266B1 cells
Assay: cell-based or functional assay
Remark: another data set of the same source

Binder | TF-1 proliferation IC50
B1 | 0.163 µg/mL
B2 | 0.181 µg/mL
B3 | 1.06 µg/mL
B5 | 0.154 µg/mL

Molecular target: T2, IL-6R on human myeloma U266B1 cells
Assay: FACS on U266B1 cells

Binder | EC50 (read off the curve)
B5 | ~0.2 µg/mL

Molecular target: IL-6R on TF-1 cells (Homo sapiens)
Assay: cell-based or functional assay

Binder | IC50 (read off the curve), IL-6 mediated TF-1 proliferation
B1 | ~0.1 µg/mL

Molecular target: T2, IL-6R on human myeloma U266B1 cells
Assay: FACS binding to IL-6R on U266B1 cells

Binder | EC50
B6 | 0.0326 µg/mL
B1 | 0.0203 µg/mL
B7 | 0.0961 µg/mL
B8 | 0.0573 µg/mL
B4 | 0.0261 µg/mL
B9 | 0.0263 µg/mL
B10 | 0.0331 µg/mL
B5 | 0.0687 µg/mL

Molecular target: T2, IL-6R on human myeloma U266B1 cells
Assay: FACS binding to IL-6R on U266B1 cells
Remark: another data set of the same source

Binder | EC50
B1 | 0.0776 µg/mL
B2 | 0.145 µg/mL
B3 | 0.356 µg/mL
B5 | 0.164 µg/mL

Molecular target: T1, recombinant human IL-6R-extracellular …
Assay: receptor-ligand ELISA, reference Tocilizumab

Binder | fold potency against Tocilizumab in ligand-receptor binding assays
B2 | 6 fold

Molecular target: T1, recombinant human IL-6R-extracellular …
Assay: receptor-ligand ELISA, blocking of IL-6 binding to IL-6R

Binder | IC50
B6 | 0.47 µg/mL
B1 | 0.23 µg/mL
B7 | 0.34 µg/mL
B8 | 1.36 µg/mL
B4 | 0.38 µg/mL
B9 | 0.38 µg/mL
B10 | 0.39 µg/mL
B5 | 0.8 µg/mL

Molecular target: T1, recombinant human IL-6R-extracellular …
Assay: as above
Remark: another data set of the same source

Binder | IC50
B1 | 0.235 µg/mL
B2 | 0.39 µg/mL
B3 | 0.26 µg/mL
B5 | 0.288 µg/mL

Molecular target: T1, recombinant human IL-6R-extracellular …
Assay: receptor-ligand ELISA: blocking of IL-6 binding to IL-6R

Binder | IC50 (read off the curve)
B1 | ~0.2 µg/mL
B2 | ~0.2 µg/mL
B5 | ~0.3 µg/mL
